Source: patent US20090233850A1

Experiments:
[1] = target: recombinant monomeric HIV-1 YU2 gp120, produced in Drosophila S2 cells (HIV-1 YU2) (UniProt P35961); test: competition ELISA on plate-adsorbed YU2 gp120; competitor mAb 2G12 at 50 ug/ml; percent of control without CVN
[2] = target: recombinant monomeric HIV-1 YU2 gp120, produced in Drosophila S2 cells (HIV-1 YU2) (UniProt P35961); test: SPR, Biacore 3000, from the response at 300 nM against the 33 RU expected for 1:1
[3] = target: recombinant monomeric HIV-1 YU2 gp120, produced in Drosophila S2 cells (HIV-1 YU2) (UniProt P35961); test: ELISA, 100 ng YU2 gp120 adsorbed on the plate, serial dilutions of CVN, detection with polyclonal anti-CVN, BSA background subtracted
[4] = target: recombinant monomeric HIV-1 YU2 gp120, produced in Drosophila S2 cells (HIV-1 YU2) (UniProt P35961); test: SPR, Biacore 3000, about 250 RU YU2 gp120 amine-coupled to CM5 chip, CVN in flow, 2B6R reference cell
[5] = target: gp120 on HIV-1 BaL (R5) virus (HIV-1 BaL); test: cell-based or functional assay

In the case of “cyanovirin-N (CVN), recombinant, periplasmic expression in E. coli, hexa-histidine tagged (from UniProt P81180 1-101)”, the IC50 (read off the curve) [1] was 30 nM, the binding stoichiometry (CVN:gp120) [2] was 3 and the EC50 (read off the curve) [3] was 10 nM. The SPR response at 300 nM [4] was 95 RU.

In the case of “unlinked CVN and 12p1 (non-covalent mixture) (from UniProt P81180 1-101)”, the boost of efficacy (% inhibition of HIV-1 BaL) of the mixture against CVN alone at the two lowest concentrations, 12p1 at 16-31 uM [5] was 2 fold and the synergy index of the combination of CVN and 12p1, inhibition of HIV-1 BaL replication in PM-1 cells (gp120 ELISA after 7 days) [5] was 0.3 to 0.5.
